Experimental data: patent CN112538115A (BIOSION BIO TECH NANJING CO LTD, dated 2021)

Target: T1, 人BCMA-His抗原 (ACRO, Cat#BCA-H522y) (human, UniProt Q02223 1-54)
T1 construct: Bought reagent; Coated on the ELISA plate at 2 ug/ml; also called 人BCMA蛋白; 人BCMA抗原; not shown: His tag
T1 sequence (looked up): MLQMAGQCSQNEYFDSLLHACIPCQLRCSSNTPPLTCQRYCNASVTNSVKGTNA
Test: indirect ELISA, human BCMA-His coated at 2 ug/ml, detection with HRP goat anti-human Fc gamma

B1: BCMA-VHH-1F7纳米抗体 (抗人BCMA纳米抗体, 含有Fc tag) (Fc fusion)
chain: EVQLVESGGGLVQAGGSLRLSCAASGGTFNNDNVGWFRQAPGKEREFVAVISWRGDGTDYADSVKGRFTISRDYAKKMVYLQMNSLQPKDTAVYYCAVGDGSRWHGAYAYWGQGTRVTVSS
notes: Expressed in Expi293F cells with an Fc tag and purified on Protein A or G; detected with anti-human Fc gamma, about 35 kDa on SDS-PAGE; also called 抗BCMA纳米抗体; not shown: Fc tag
- binding result: binds
